# Measurements reported in the supplement of paper PMC10567573.
# B1: ZNF449 (parent)
# chain: EPHKCPECGKRFLRSSDLYRHQRL
# Variants of: B1
# Experiment: protein stability index of a GFP-peptide fusion (GPS, HEK-293T) (PSI 1-6); higher = more stable
# Conditions: c terminus: a fixed tail appended
# 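Also: lentivirally expressed fusions sorted by FACS into six bins by GFP to DsRed ratio, PSI derived from sequencing read proportions per bin multiplied by bin number.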
row,Variant,protein stability index
1,EPHKCPECGKRFLRSSDLYREQRL [H21E],2.15
2,EPHKCPECGKRFLRSSDLYRYQRL [H21Y],2.1
3,EPHKCPECGKRFLRSSDLYRVQRL [H21V],2.11
4,EPHKCPECGKRFLRSSDLYRDQRL [H21D],2.79
5,EPHKCPECGKRFLRSSDLYRRQRL [H21R],2.07
6,EPHKCPECGKRFLRSSDLYRQQRL [H21Q],1.91
7,EPHKCPECGKRFLRSSDLYRSQRL [H21S],2
8,EPHKCPECGKRFLRSSDLYRPQRL [H21P],2.14
9,EPHKCPECGKRFLRSSDLYRGQRL [H21G],1.84
10,EPHKCPECGKRFLRSSDLYRAQRL [H21A],1.62
11,EPHKCPECGKRFLRSSDWYRHQRL [L18W],3.37
12,EPHKCPECGKRFLRSSDYYRHQRL [L18Y],2.97
13,EPHKCPECGKRFLRSSDTYRHQRL [L18T],2.48
14,EPHKCPECGKRFLRSSDRYRHQRL [L18R],3.3
15,EPHKCPECGKRFLRSSDQYRHQRL [L18Q],2.46
16,EPHKCPECGKRFLRSSDPYRHQRL [L18P],2.37
17,EPHKCPECGKRFLRSSDVYRHQRL [L18V],3.12
18,EPHKCPECGKRFLRSSDSYRHQRL [L18S],3.15
19,EPHKCPECGKRFLRSSDLYRHTRL [Q22T],3.3
20,EPHKCPECGKRFLRSSDLYRHHRL [Q22H],3.27
21,EPHKCPECGKRFLRSSDLYRHPRL [Q22P],2.4
22,EPHKCPECGKRFLRSSDLYRHIRL [Q22I],2.91
23,EPHKCPECGKRFLRSSDLYRHARL [Q22A],3.04
24,EPHKCPECGKRFLRSSDLYRHFRL [Q22F],3.14

row,Variant,protein stability index
1,EPHKCPECGKRFLRSSDLYRHYRL [Q22Y],3.44
2,EPHKCPECGKRFLRSSDLYRHVRL [Q22V],3.76
3,EPHKCPECGKRFLRSSDLYRHGRL [Q22G],2.83
4,EPHKCPECGKRFLRSSDLYRHCRL [Q22C],3.97
5,EPHKCPECGKRFLRSSDLYRHERL [Q22E],3.92
6,EPHKCPECGKRFLRSSDLYRHLRL [Q22L],3.93
7,EPHKCPECGKRFLRSSDLYRHRRL [Q22R],3.84
8,EPHKCPECGKRFLRSSDLYRHKRL [Q22K],3.28
9,EPHKCPECGKRFLRSSDLYRHDRL [Q22D],2.39
10,EPHKCPECGKRFLRSSDLYRHSRL [Q22S],3.16
11,EPHKCPECGKRFLRSSDLYRHWRL [Q22W],2.78
12,EPHKCPECGKRFLRSSDLYRHNRL [Q22N],3.36
13,EPHKCPECGKRFLRSSDLYRHMRL [Q22M],3.83
14,EPHKCPECGKRFLRSSDLYVHQRL [R20V],4.02
15,EPHKCPECGKRFLRSSDLYNHQRL [R20N],4.21
16,EPHKCPECGKRFLRSSDLYPHQRL [R20P],2.88
17,EPHKCPECGKRFLRSSDLYMHQRL [R20M],3.83
18,EPHKCPECGKRFLRSSDLYYHQRL [R20Y],3.32
19,EPHKCPECGKRFLRSSDLYEHQRL [R20E],4.63
20,EPHKCPECGKRFLRSSDLYGHQRL [R20G],3.21
21,EPHKCPECGKRFLRSSDLYTHQRL [R20T],4.01
22,EPHKCPECGKRFLRSSDLYQHQRL [R20Q],4.29
23,EPHKCPECGKRFLRSSDLYAHQRL [R20A],4.66
24,EPHKCPECGKRFLRSSDLYSHQRL [R20S],4.2

row,Variant,protein stability index
1,EPHKCPECGKRFLRSSDLYCHQRL [R20C],3.69
2,EPHKCPECGKRFLRSSDLYDHQRL [R20D],4.5
3,EPHKCPECGKRFLRSSDLYHHQRL [R20H],4.14
4,EPHKCPECGKRFLRSSDLYKHQRL [R20K],4.43
5,EPHKCPECGKRFLRSSDLYFHQRL [R20F],3.42
6,EPHKCPECGKRFLRSSDLYWHQRL [R20W],3.6
7,EPHKCPECGKRFLRSSDLYIHQRL [R20I],3.56
8,EPHKCPECGKRFLRSSDLYLHQRL [R20L],3.55
9,EPHKCPECGKRFLRSSDLPRHQRL [Y19P],2.62
10,EPHKCPECGKRFLRSSDLNRHQRL [Y19N],3.4
11,EPHKCPECGKRFLRSSDLFRHQRL [Y19F],3.96
12,EPHKCPECGKRFLRSSDLARHQRL [Y19A],4.05
13,EPHKCPECGKRFLRSSDLLRHQRL [Y19L],4.04
14,EPHKCPECGKRFLRSSDLGRHQRL [Y19G],2.92
15,EPHKCPECGKRFLRSSDLWRHQRL [Y19W],2.86
16,EPHKCPECGKRFLRSSDLQRHQRL [Y19Q],3.84
17,EPHKCPECGKRFLRSSDLDRHQRL [Y19D],4.68
18,EPHKCPECGKRFLRSSDLSRHQRL [Y19S],3.68
19,EPHKCPECGKRFLRSSDLCRHQRL [Y19C],4.7
20,EPHKCPECGKRFLRSSDLMRHQRL [Y19M],3.65
21,EPHKCPECGKRFLRSSDLVRHQRL [Y19V],3.89
22,EPHKCPECGKRFLRSSDLERHQRL [Y19E],4.63
23,EPHKCPECGKRFLRSSDLIRHQRL [Y19I],3.86
24,EPHKCPECGKRFLRSSDLKRHQRL [Y19K],3.92

row,Variant,protein stability index
1,EPHKCPECGKRFLRSSDLTRHQRL [Y19T],3.6
2,EPHKCPECGKRFLRSSDLHRHQRL [Y19H],3.99
3,EPHKCPECGKRFLRSSDLRRHQRL [Y19R],3.55
4,EPHKCPECGKRFLRSSDLYRHQKL [R23K],4.27
5,EPHKCPECGKRFLRSSDLYRHQVL [R23V],3.16
6,EPHKCPECGKRFLRSSDLYRHQYL [R23Y],3.75
7,EPHKCPECGKRFLRSSDLYRHQGL [R23G],3.54
8,EPHKCPECGKRFLRSSDLYRHQWL [R23W],2.94
9,EPHKCPECGKRFLRSSDLYRHQTL [R23T],4.01
10,EPHKCPECGKRFLRSSDLYRHQDL [R23D],4.32
11,EPHKCPECGKRFLRSSDLYRHQSL [R23S],4.11
12,EPHKCPECGKRFLRSSDLYRHQAL [R23A],3.74
13,EPHKCPECGKRFLRSSDLYRHQHL [R23H],3.84
14,EPHKCPECGKRFLRSSDLYRHQML [R23M],3.47
15,EPHKCPECGKRFLRSSDLYRHQPL [R23P],2.98
16,EPHKCPECGKRFLRSSDLYRHQEL [R23E],4.47
17,EPHKCPECGKRFLRSSDLYRHQCL [R23C],5.02
18,EPHKCPECGKRFLRSSDLYRHQNL [R23N],4.4
19,EPHKCPECGKRFLRSSDLYRHQQL [R23Q],4.43
20,EPHKCPECGKRFLRSSDLYRHQIL [R23I],3.01
21,EPHKCPECGKRFLRSSDLYRHQLL [R23L],3.7
22,EPHKCPECGKRFLRSSDLYRHQFL [R23F],3.43
